target: AchR (Homo sapiens, UniProt P02708); assay: ELISA of screened peptide phages on AchR versus streptavidin (OD450); format: binding; details: ELISA of selected 11-mer (L2) peptide phages on AchR, absorbance at 450 nm; Spep-2 positive control
Procedure, shortened: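 Reported as the ratio of AchR to streptavidin OD450, with TMB read-out after HRP anti-M13 detection. Wells coated with 5 μg/ml target overnight at 4 °C and BSA-blocked, then incubated 1 h at 30 °C with helper-rescued phage from individual plaques.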

Chain of AchR (P02708 21-457): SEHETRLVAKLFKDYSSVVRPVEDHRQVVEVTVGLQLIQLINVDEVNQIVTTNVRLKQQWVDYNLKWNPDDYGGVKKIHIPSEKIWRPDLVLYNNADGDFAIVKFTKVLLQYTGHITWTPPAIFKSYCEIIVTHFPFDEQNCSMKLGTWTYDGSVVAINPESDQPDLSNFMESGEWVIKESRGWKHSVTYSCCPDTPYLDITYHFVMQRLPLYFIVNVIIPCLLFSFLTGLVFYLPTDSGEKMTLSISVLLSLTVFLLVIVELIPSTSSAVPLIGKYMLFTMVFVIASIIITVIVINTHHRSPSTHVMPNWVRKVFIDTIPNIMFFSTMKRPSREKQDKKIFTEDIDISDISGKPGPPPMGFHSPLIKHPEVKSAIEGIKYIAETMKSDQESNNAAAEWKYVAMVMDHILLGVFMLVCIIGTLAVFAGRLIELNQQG

| Substance | OD |
| --- | --- |
| L2-83 (HQQKCKKTTTK; AchR binding peptide) [Peptide L2-83] | 0.65 |
| L2-118 (FLRRLKKVHWK; AchR binding peptide) [Peptide L2-118] | 0.65 |
| L2-66 (PNYKWRKSRRR; AchR binding peptide) [Peptide L2-66] | 0.798 |
| L2-40 (PEVKVRRHSMR; AchR binding peptide) [Peptide L2-40] | 0.685 |
| L2-91 (PIDKFKRGMVR; AchR binding peptide) [Peptide L2-91] | 0.517 |
| L2-71 (PYLRSKRFPPR; AchR binding peptide) [Peptide L2-71] | 0.651 |
| L2-138 (IMERQRKSQHR; AchR binding peptide) [Peptide L2-138] | 0.509 |
| L2-55 (PACRSKRDWQK; AchR binding peptide) [Peptide L2-55] | 0.524 |
| L2-10 (TSQKVRKMEAK; AchR binding peptide) [Peptide L2-10] | 0.803 |
| L2-26 (APWRLKRAPQR; AchR binding peptide) [Peptide L2-26] | 0.809 |
| L2-161 (AWFRVKRSNCR; AchR binding peptide) [Peptide L2-161] | 0.579 |
| L2-170 (QVHRNKRYTDR; AchR binding peptide) [Peptide L2-170] | 0.718 |
| L2-191 (PDSRLKKHEAK; AchR binding peptide) [Peptide L2-191] | 0.689 |
| L2-60 (HADKFRRFNMR; AchR binding peptide) [Peptide L2-60] | 0.697 |
| L2-23 (QTYRLKKPLQK; AchR binding peptide) [Peptide L2-23] | 0.832 |
| L2-36 (FIPKMRKCSPR; AchR binding peptide) [Peptide L2-36] | 0.76 |
| L2-96 (ISDKAKRQHFK; AchR binding peptide) [Peptide L2-96] | 0.708 |
| L2-131 (MTLKHRRVYIK; AchR binding peptide) [Peptide L2-131] | 0.462 |
| L2-137 (CACKQRRATSR; AchR binding peptide) [Peptide L2-137] | 0.452 |
| L2-9 (ATCKPKRPWYK; AchR binding peptide) [Peptide L2-9] | 0.721 |
| L2-186 (PNWKVRRFGDK; AchR binding peptide) [Peptide L2-186] | 0.683 |
| L2-75 (YILRDKKVPLK; AchR binding peptide) [Peptide L2-75] | 0.539 |
| L2-176 (WWHKHRRAQSK; AchR binding peptide) [Peptide L2-176] | 0.574 |
| L2-165 (AYPKFRKTFNR; AchR binding peptide) [Peptide L2-165] | 0.718 |
| L2-62 (NLHKPKRDLPK; AchR binding peptide) [Peptide L2-62] | 0.736 |
| L2-85 (VFVKWRRQMMR; AchR binding peptide) [Peptide L2-85] | 0.768 |

same assay, conditions: ELISA of selected 14-mer (L3) peptide phages on AchR, absorbance at 450 nm; Spep-2 positive control

| Substance | OD |
| --- | --- |
| L3-169 (FHMKSKKDGDKFVM; AchR binding peptide) [Peptide L3-169] | 0.783 |
| L3-89 (EWCKNKRWHSREYP; AchR binding peptide) [Peptide L3-89] | 0.624 |
| L3-12 (DPPKKRKSLLRRVS; AchR binding peptide) [Peptide L3-12] | 0.882 |
| L3-186 (YEHRHKRFFHKDMP; AchR binding peptide) [Peptide L3-186] | 0.799 |
| L3-64 (HEIKQKKYFHRGHD; AchR binding peptide) [Peptide L3-64] | 0.799 |
| L3-139 (FHHRHKRIATKHPA; AchR binding peptide) [Peptide L3-139] | 0.49 |
| L3-85 (QLVKLRKLARRVSY; AchR binding peptide) [Peptide L3-85] | 0.735 |
| L3-157 (CMLRWKRWHMRFNP; AchR binding peptide) [Peptide L3-157] | 0.731 |
| L3-194 (WAPRDRRNMGRDPA; AchR binding peptide) [Peptide L3-194] | 0.743 |
| L3-124 (GAQRARKPVLRAVG; AchR binding peptide) [Peptide L3-124] | 0.515 |
| L3-112 (ALPRVRKDSHREEI; AchR binding peptide) [Peptide L3-112] | 0.731 |
| L3-40 (ASPKGRRPTFRPQH; AchR binding peptide) [Peptide L3-40] | 0.733 |
| L3-197 (QQIKYKRPTYRMVC; AchR binding peptide) [Peptide L3-197] | 0.771 |
| L3-111 (TWLRGRRWPDKQPQ; AchR binding peptide) [Peptide L3-111] | 0.976 |
| L3-83 (SYLKCKRSDYKEVP; AchR binding peptide) [Peptide L3-83] | 0.768 |
| L3-176 (MIGKCRKCGTKCYA; AchR binding peptide) [Peptide L3-176] | 0.739 |
| L3-198 (LPWRERRNGGRSSE; AchR binding peptide) [Peptide L3-198] | 0.78 |
| L3-178 (PDLKFRKHQDRTAI; AchR binding peptide) [Peptide L3-178] | 0.755 |
| L3-21 (NPMKLRKAETKHNV; AchR binding peptide) [Peptide L3-21] | 0.843 |
| L3-60 (EDLRCKKLELRSVI; AchR binding peptide) [Peptide L3-60] | 0.574 |
| L3-10 (AHGKDRRYVEKLEV; AchR binding peptide) [Peptide L3-10] | 0.769 |
| L3-54 (FFLRCRRLLGKVQV; AchR binding peptide) [Peptide L3-54] | 0.784 |
| L3-58 (SLPKWRKGGDRVFT; AchR binding peptide) [Peptide L3-58] | 0.664 |

same assay, conditions: phage ELISA, absorbance at 450 nm, 5 μg/ml AchR; 4th and 5th round biopanning phages

| Substance | OD |
| --- | --- |
| RVKKAETR [Peptide L1-92] | 0.581 |
| KTKKIHSK [Peptide L1-22] | 0.732 |
| RHKRQQDK [Peptide L1-186] | 0.474 |
| KTKKLYEK [Peptide L1-25] | 0.709 |
| RPKKHQER [Peptide L1-158] | 0.605 |
| RFKRLCMK [Peptide L1-15] | 0.67 |
| KNRRADCR [Peptide L1-140] | 0.381 |
| KWRREGFK [Peptide L1-12] | 0.691 |
| KTKRGSLK [Peptide L1-101] | 0.599 |
| KNRKNLYR [Peptide L1-36] | 0.553 |
| KSKRHHEK [Peptide L1-69] | 0.474 |
| KPKREMHK [Peptide L1-79] | 0.583 |
| RSRRCPVK [Peptide L1-119] | 0.463 |
| KDRKVNSR [Peptide L1-97] | 0.546 |
| RHKRMLWR [Peptide L1-131] | 0.505 |
| KKRKSLLR [Peptide L1-159] | 0.593 |
| KMRRWWLK [Peptide L1-190] | 0.644 |
| RLRRWCVK [Peptide L1-30] | 0.605 |
| KWRKRRIK [Peptide L1-46] | 0.637 |
| RTKRWQLK [Peptide L1-94] | 0.496 |
| KQRKPHGR [Peptide L1-67] | 0.593 |
| KERKHEAK [Peptide L1-62] | 0.633 |
| RRRRRRRRRRR [Peptide L2-201, reference compound] | 0.307 |
| KPRRPDTR [Peptide L1-109] | 0.542 |
| KMRRIMYK [Peptide L1-64] | 0.589 |

— US20260000597A1 (priority 2018, published 2026)
